In patent publication US20150125463A1 (Bristol-Myers Squibb, published 2015):

Columns and labels:
[1] = target: T1, human PD-L1 (on cells or in tissue) (human, UniProt Q9NZQ7 19-290); assay: competition flow cytometry on ES-2 cells: unlabeled Ab titrated, then biotin-12A4 at 0.4 ug/mL, streptavidin-PE
T1 construct: whole, on cells; also called hPD-L1; Programmed Death Ligand-1

[2] = target: T1, human PD-L1 (on cells or in tissue); assay: flow cytometry on CHO/PD-L1 cells pre-incubated with 10 ug/mL hIgG1, FITC-10H10 at 0.27 ug/mL
From the text: (§1) Different quantities of the various FITC-conjugated HuMAbs were used due to differences in binding efficiency following labeling, and the optimal amounts of these FITC-conjugated HuMAbs were previously determined by dose-titration analysis of binding to CHO/PD-L1 cells.

[3] = target: T1, human PD-L1 (on cells or in tissue); assay: flow cytometry competition on CHO/PD-L1 cells; unlabeled mAb at 10 ug/ml
From the text: as §1

human PD-1 [4] = target: T2, human PD-1 (human, UniProt Q15116 25-288); assay: flow cytometry on CHO/PD-1 cells pre-incubated with 10 ug/mL hIgG1 control, 2D3 at 0.2 ug/mL, detection with FITC goat anti-hIgG Fc
T2 construct: whole, on cells; also called hPD-1; Programmed Death-1

human PD-1 [5] = target: T2, human PD-1; assay: flow cytometry on CHO/PD-1 cells pre-incubated with 10 ug/mL hIgG1 control, 4H1 at 0.2 ug/mL, detection with FITC goat anti-hIgG Fc
human PD-1 [6] = target: T2, human PD-1; assay: flow cytometry on CHO/PD-1 cells pre-incubated with hIgG control, FITC-labeled 17D8
human PD-1 [7] = target: T2, human PD-1; assay: flow cytometry on CHO/PD-1 cells pre-incubated with 10 ug/mL hIgG1 control, 7D3 at 0.2 ug/mL, detection with FITC goat anti-hIgG Fc

B1: anti-PD-L1 HuMAb 10A5 (antibody, V domains shown)
VH: QVQLVQSGAEVKKPGASVKVSCKASGYTFTSYDVHWVRQAPGQRLEWMGWLHADTGITKFSQKFQGRVTITRDTSASTAYMELSSLRSEDTAVYYCARERIQLWFDYWGQGTLVTVSS
VL: DIQMTQSPSSLSASVGDRVTITCRASQGISSWLAWYQQKPEKAPKSLIYAASSLQSGVPSRFSGSGSGTDFTLTISSLQPEDFATYYCQQYNSYPYTFGQGTKLEIK
notes: Human mAb; Used unconjugated and FITC-conjugated
Does B1 bind [1]?
Result: binds

B2: anti-PD-L1 HuMAb 10H10 (antibody, V domains shown)
VH: EVQLVESGGGLVQPGRSLRLSCAVSGFTFDDYVVHWVRQAPGKGLEWVSGISGNSGNIGYADSVKGRFTISRDNAKNSLYLQMNSLRAEDTALYYCAVPFDYWGQGTLVTVSS
VL: DIQMTQSPSSLSASVGDRVTITCRASQGISSWLAWYQQKPEKAPKSLIYAASSLQSGVPSRFSGSGSGTDFTLTISSLQPEDFATYYCQQYNSYPYTFGQGTKLEIK
notes: as for B1
Does B2 bind [2]?
Result: binds

B3: anti-PD-L1 HuMAb 1B12 (antibody, V domains shown)
VH: QVQLVQSGAEVKKPGSSVKVSCKTSGDTFSSYAISWVRQAPGQGLEWMGGIIPIFGRAHYAQKFQGRVTITADESTSTAYMELSSLRSEDTAVYFCARKFHFVSGSPFGMDVWGQGTTVTVSS
VL: not shown
notes: Human mAb
Which “IC50 (read off the curve)” value [1] does the source give for B3 here?
The value was ~0.2 nM.

B4: anti-PD-L1 HuMAb 7H1 (antibody, V domains shown)
VH: QVQLVQSGAEVKKPGSSVKVSCKTSGGTFSSYAISWVRQAPGQGLEWMGGIIPIFGKAHYAQKFQGRVTITADESTTTAYMELSSLRSEDTAVYYCARKYDYVSGSPFGMDVWGQGTTVTVSS
VL: not shown
notes: Human mAb
Does B4 bind [3]?
Result: binds

B5: anti-PD-1 HuMAb 2D3 (antibody, V domains shown)
VH: QVQLVESGGDVVQPGRSLRLSCAASGLTFTNYGFHWVRQAPGKGLEWVAVIWYDGSKKYYADSVKGRFTISRDNSKNTLYLQMNNLRAEDTAVYYCATGDDYWGQGTLVTVSS
VL: EIVLTQSPATLSLSPGERATLSCRASQSVSSYLAWYQQKPGQAPRLLIYDTSNRATGIPARFSGSGSGTDFTLTISSLEPEDFAVYYCQQRSNWPLTFGGGTKVEIK
notes: Human mAb
Does B5 bind (human PD-1 [4])?
Result: binds

B6: anti-PD-L1 HuMAb 3G10 (antibody, V domains shown)
VH: QVQLVQSGAEVKKPGASVKVSCKASGYTFTDYGFSWVRQAPGQGLEWMGWITAYNGNTNYAQKLQGRVTMTTDTSTSTVYMELRSLRSDDTAVYYCARDYFYGMDVWGQGTTVTVSS
VL: EIVLTQSPATLSLSPGERATLSCRASQSVSSYLVWYQQKPGQAPRLLIYDASNRATGIPARFSGSGSGTDFTLTISSLEPEDFAVYYCQQRSNWPRTFGQGTKVEIK
notes: as for B1
For B6, which “IC50 (read off the curve)” value [1] is on record?
The value was ~0.9 nM.

B7: anti-PD-1 HuMAb 4H1 (antibody, V domains shown)
VH: QVYLVESGGGVVQPGRSLRLSCAASGFTFSNYGMHWVRQAPGKGLEWVALIWYDGSNKYYADSVKGRFTISRDNSKNTLYLQMTSLRVEDTAVYYCASNVDHWGQGTLVTVSS
VL: EIVLTQSPATLSLSPGERATLSCRASQSVSSYLAWYQQKPGQAPRLLIYDASNRATGIPARFSGSGSGTDFTLTISSLEPEDFAVYYCQQSSNWPRTFGQGTKVEIK
notes: Human mAb
Does B7 bind (human PD-1 [5])?
Result: binds

B8: anti-PD-1 HuMAb 17D8 (antibody, V domains shown)
VH: QVQLVESGGDVVQPGGSLRLSCAASGVAFSNYGMHWVRQAPGKGLEWVAVIWYDGSNKYYADSVKGRFTISRDNSKNMLYLQMNSLRAEDTAMYYCARNDDYWGQGTLVTVSS
VL: EIVLTQSPATLSLSPGERATLSCRASQSVSSYLAWYQQKPGQAPRLIIYDASNRATGIPARFSGSGSGTDFTLTISSLEPEDFAVYYCQQRSNWPLTFGGGTKVEIK
notes: Human mAb; also called FITC-labeled 17D8
Does B8 bind (human PD-1 [6])?
Result: binds

B9: anti-PD-1 HuMAb 7D3 (antibody, V domains shown)
VH: QVQLVESGGGVVQPGRSLRLSCTTSGITFSSYGFHWVRQAPGKGLEWVAVIWYDGSKKYYADSVKGRFTLSRDDSKNTLYLQMNSLRAEDTAVYYCVTGDDYWGQGTLVTVSS
VL: EIVLTQSPATLSLSPGERATLSCRASQSVSSYLAWYQQKPGQAPRLLIYDASNRATGIPARFSGSGSGTDFTLTISSLEPEDFAVYYCQQRSNWPLTFGGGTKVEIK
notes: Human mAb
Does B9 bind (human PD-1 [7])?
Result: binds
